Measured values reported in article PMC4520715.

Assays:
Experiment in all cases: co-IP
[1] = biological target: myc-UBQLN1 (human) (human) (UniProt Q9UMX0)
[2] = biological target: Rv1926c-V5 (Mycobacterium tuberculosis) (UniProt P9WIP1)
[3] = biological target: Rv1566-V5 (Mycobacterium tuberculosis)

UniProt P9WIP1, sequence (P9WIP1 30-159): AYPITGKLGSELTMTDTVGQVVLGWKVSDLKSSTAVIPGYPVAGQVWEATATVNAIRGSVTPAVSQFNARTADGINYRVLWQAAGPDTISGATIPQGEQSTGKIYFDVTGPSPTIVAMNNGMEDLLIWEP

Substance | percent of the amount directly precipitated [1] | percent of the amount precipitated directly with the myc antibody [2] | percent of the amount directly precipitated [3]
Rv1566-V5 (natural protein) | 7% | – | –
myc-UBQLN1 (human) (from UniProt Q9UMX0 1-589) (natural protein) | – | 27% | 7%
